The text below walks through data of PMC4664265, “Substrate-Induced Dimerization of Engineered Monomeric Variants of Triosephosphate Isomerase from Trichomonas vaginalis” (PLoS ONE, 2015).

In data set [1] the target is TvTIM1 I45A (Trichomonas vaginalis) (UniProt A2EGX9).
For data set [2] the target is unchanged. Put plainly: AUC.
Data set [3] has the same target. Put plainly: SEC; gel filtration at 7 mg/ml (~260 μM) in Tris pH 7.4, 100 mM NaCl; dimer to monomers.
Data set [4] addresses TvTIM1 I45F (Trichomonas vaginalis) (UniProt A2EGX9).
Data set [5] concerns the target TvTIM1 I45G (Trichomonas vaginalis) (UniProt A2EGX9).
Data set [6] has the same target. Put plainly: SEC; gel filtration at 7 mg/ml (~260 μM) in Tris pH 7.4, 100 mM NaCl; dimer to monomers. (In gel filtration, larger molecules generally elute earlier.)
The target in data set [7] is TvTIM1 I45G-Q52C double mutant (Trichomonas vaginalis) (UniProt A2EGX9).
The target of data set [8] is TvTIM1 I45Y (Trichomonas vaginalis) (UniProt A2EGX9).
Data set [9] concerns the molecule itself. Put plainly: SEC; gel filtration at 7 mg/ml (~260 μM) in Tris pH 7.4, 100 mM NaCl; dimer to monomers.
Data set [10] deals with the molecule itself. Put plainly: AUC; sedimentation velocity, 20°C, 129,024 rcf, absorbance at 280 nm, c(s) with SEDFIT; protein 7 to 35 μM, no ligand.

In data set [1], “TvTIM1 I45A (from UniProt A2EGX9) (enzyme)” had a Kcat/Km (substrate DGAP, coupled assay, 25°C; enzyme at 2 nM) of 198000 M⁻¹ s⁻¹. In addition, in [2], the percent dimer with 20 μM PGH came to 17%, the percent dimer with 250 μM PGH amounted to 38%, the percent dimer with 600 μM PGH came to 38% and the percent dimer with 1000 μM PGH amounted to 44%. In addition, in data set [2], the percent dimer with 2000 μM PGH stood at 46%. Besides, in [3], the percent of the total injected protein in the dimer peak was 13% and the percent of the total protein in the dimer peak worked out at 3%.

Take “TvTIM1 I45F (from UniProt A2EGX9) (enzyme)”: the Kcat/Km (substrate DGAP, coupled assay, 25°C; enzyme at 10 nM) in [4] turned out to be 33300 M⁻¹ s⁻¹.

For the molecule “TvTIM1 I45G (from UniProt A2EGX9) (enzyme)”, in data set [5], the Kcat/Km (substrate DGAP, coupled assay, 25°C; enzyme at 5 nM) turned out to be 40800 M⁻¹ s⁻¹. This molecule displayed a percent of the total protein in the dimer peak in data set [6] of 6%.

For the molecule “TvTIM1 I45G-Q52C double mutant (from UniProt A2EGX9 1-252) (enzyme)”, in data set [7], the Kcat/Km of I45G-Q52C before cross-linking (substrate DGAP, coupled assay, 25°C) came to 39700 M⁻¹ s⁻¹ and the Kcat/Km of the purified cross-linked I45G-Q52C dimer (substrate DGAP, coupled assay, 25°C) is 2.5e+06 M⁻¹ s⁻¹.

For “TvTIM1 I45Y (from UniProt A2EGX9) (enzyme)”, the Kcat/Km (substrate DGAP, coupled assay, 25°C; enzyme at 12 nM) in [8] came to 12200 M⁻¹ s⁻¹.

B1: TvTIM1 I45V (enzyme)
chain: MRTFFVGGNWKANPKTVEEAEKLIEMLNGAKVEGNVEVVVAAPFVFLPTLQQKLRKDWKVSAENVFTKPNGAFTGEVTVPMIKSFGIEWTILGHSERRDILKEDDEFLAAKAKFALENGMKIIYCCGEHLSEREAGKASEFVSAQIEKMIPAIPAGKWDDVVIAYEPIWAIGTGKVASTQDAQEMCKVIRDILAAKVGADIANKVRILYGGSVKPNNCNELAACPDVDGFLVGGASLEPGFINIVNSNVHSK
As to B1, in data set [9], the stoichiometry N (in general, the number of molecules, sites or subunits per partner or assembly) is 2.

B2: TvTIM1 I45L (enzyme)
chain: MRTFFVGGNWKANPKTVEEAEKLIEMLNGAKVEGNVEVVVAAPFLFLPTLQQKLRKDWKVSAENVFTKPNGAFTGEVTVPMIKSFGIEWTILGHSERRDILKEDDEFLAAKAKFALENGMKIIYCCGEHLSEREAGKASEFVSAQIEKMIPAIPAGKWDDVVIAYEPIWAIGTGKVASTQDAQEMCKVIRDILAAKVGADIANKVRILYGGSVKPNNCNELAACPDVDGFLVGGASLEPGFINIVNSNVHSK
B2: the “stoichiometry N” value in [9] stood at 2.

B3: Triosephosphate isomerase 1 from Trichomonas vaginalis, wild type (enzyme, UniProt A2EGX9 1-252, looked up)
chain: MRTFFVGGNWKANPKTVEEAEKLIEMLNGAKVEGNVEVVVAAPFIFLPTLQQKLRKDWKVSAENVFTKPNGAFTGEVTVPMIKSFGIEWTILGHSERRDILKEDDEFLAAKAKFALENGMKIIYCCGEHLSEREAGKASEFVSAQIEKMIPAIPAGKWDDVVIAYEPIWAIGTGKVASTQDAQEMCKVIRDILAAKVGADIANKVRILYGGSVKPNNCNELAACPDVDGFLVGGASLEPGFINIVNSNVHSK
notes: triosephosphate isomerase TvTIM1 of Trichomonas vaginalis; Homodimer in solution (gel filtration, AUC); the rows are of one chain with another; also called TvTIM1; TIM1WT
In the case of B3, in data set [10], the “stoichiometry N” value was determined as 2.
